According to article PMC5668257:

Molecular target: EB1 (dog (endogenous in MDCK))
Test: FRET or BRET; immuno-FRET by acceptor photobleaching at the centrosome area of fixed mitotic MDCK cells; primary antibodies with secondary antibodies labelled with Alexa 555 (donor) and Cy5 or Alexa 633 (acceptor), 1 donor : 2 acceptor

- FRET efficiency (donor AKAP350, acceptor EB1): 11%
- FRET efficiency (donor EB1, acceptor AKAP350): 5%
Substance: AKAP350 (natural protein)
